Test results: patent US20150258192A1, “COMPOSITIONS AND METHODS FOR PREVENTING OR TREATING CHRONIC LUNG ALLOGRAFT DYSFUNCTION (CLAD) AND IDIOPATHIC PULMONARY FIBROSIS (IPF)” (priority 2014, published 2015)
No end group written: not given here.

Key:
Assay in all cases: Kinase Profiling Assay
Assay type in all cases: biochemical
Conditions in all cases: peptide 100 μM
[1] = molecular target: T1, IR(h) (Homo sapiens, UniProt P06213)
T1 construct: purchased Millipore
Method in brief: (§1)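 In this 266-kinase specificity panel, every measurement was duplicated. Transfer of labeled phosphate from ATP to a cationic substrate was quantified after the substrate adhered to an anionic filter membrane and was scintillation-counted, then related to a full-activity control.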

[2] = molecular target: T2, DYRK2(h) (Homo sapiens, UniProt Q92630)
T2 sequence (Q92630 1-601): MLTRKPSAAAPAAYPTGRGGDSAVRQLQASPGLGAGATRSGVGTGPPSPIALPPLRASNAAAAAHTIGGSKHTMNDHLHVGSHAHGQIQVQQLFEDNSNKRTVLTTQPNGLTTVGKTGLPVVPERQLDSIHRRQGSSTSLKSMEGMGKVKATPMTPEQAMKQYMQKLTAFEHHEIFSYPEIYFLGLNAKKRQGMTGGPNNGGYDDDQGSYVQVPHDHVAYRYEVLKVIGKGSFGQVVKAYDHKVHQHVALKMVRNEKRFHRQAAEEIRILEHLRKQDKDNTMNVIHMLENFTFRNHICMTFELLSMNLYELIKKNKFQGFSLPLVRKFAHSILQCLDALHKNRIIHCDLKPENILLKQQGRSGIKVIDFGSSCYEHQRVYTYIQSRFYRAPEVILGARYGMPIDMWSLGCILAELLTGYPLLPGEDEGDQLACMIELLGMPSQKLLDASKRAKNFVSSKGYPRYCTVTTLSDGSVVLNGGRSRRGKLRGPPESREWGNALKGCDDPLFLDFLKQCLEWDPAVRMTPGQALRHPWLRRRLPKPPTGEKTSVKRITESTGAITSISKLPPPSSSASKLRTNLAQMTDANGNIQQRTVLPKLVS
Method in brief: as §1

[3] = molecular target: T3, ZAP-70(h) (Homo sapiens, UniProt P43403)
T3 sequence (P43403 1-619): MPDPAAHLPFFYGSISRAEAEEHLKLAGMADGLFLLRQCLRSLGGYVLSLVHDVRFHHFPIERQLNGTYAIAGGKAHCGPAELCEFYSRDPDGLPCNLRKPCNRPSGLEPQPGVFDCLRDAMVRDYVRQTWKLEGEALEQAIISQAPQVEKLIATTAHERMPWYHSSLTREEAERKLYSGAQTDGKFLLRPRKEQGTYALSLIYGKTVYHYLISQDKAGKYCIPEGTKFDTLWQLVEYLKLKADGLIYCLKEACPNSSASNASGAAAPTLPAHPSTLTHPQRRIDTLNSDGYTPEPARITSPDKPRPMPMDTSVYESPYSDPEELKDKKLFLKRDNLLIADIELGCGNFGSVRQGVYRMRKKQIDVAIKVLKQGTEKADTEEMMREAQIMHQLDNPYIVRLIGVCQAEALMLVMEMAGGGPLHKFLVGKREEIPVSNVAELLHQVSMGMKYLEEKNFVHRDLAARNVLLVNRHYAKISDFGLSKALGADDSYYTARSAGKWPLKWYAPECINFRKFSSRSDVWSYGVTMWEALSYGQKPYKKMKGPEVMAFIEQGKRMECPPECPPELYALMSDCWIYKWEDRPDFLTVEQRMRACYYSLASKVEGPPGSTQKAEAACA
Method in brief: as §1

[4] = molecular target: Fms(Y969C)(h) (Homo sapiens, UniProt P07333, Y969C)
Method in brief: as §1

[5] = molecular target: CDK5/p35(h) (Homo sapiens, UniProt Q00535)
Method in brief: as §1

[6] = molecular target: T4, JNK3(h) (Homo sapiens, UniProt P53779)
T4 construct: purchased Millipore
Method in brief: as §1

[7] = molecular target: T5, IGF-1R(h), activated (Homo sapiens, UniProt P08069)
T5 construct: purchased Millipore
Method in brief: as §1

[8] = molecular target: T6, PAK2(h) (Homo sapiens, UniProt Q13177)
T6 construct: purchased Millipore
Method in brief: as §1

[9] = molecular target: T7, JAK3(h) (Homo sapiens, UniProt P52333)
T7 construct: purchased Millipore
T7 sequence (P52333 1-1124): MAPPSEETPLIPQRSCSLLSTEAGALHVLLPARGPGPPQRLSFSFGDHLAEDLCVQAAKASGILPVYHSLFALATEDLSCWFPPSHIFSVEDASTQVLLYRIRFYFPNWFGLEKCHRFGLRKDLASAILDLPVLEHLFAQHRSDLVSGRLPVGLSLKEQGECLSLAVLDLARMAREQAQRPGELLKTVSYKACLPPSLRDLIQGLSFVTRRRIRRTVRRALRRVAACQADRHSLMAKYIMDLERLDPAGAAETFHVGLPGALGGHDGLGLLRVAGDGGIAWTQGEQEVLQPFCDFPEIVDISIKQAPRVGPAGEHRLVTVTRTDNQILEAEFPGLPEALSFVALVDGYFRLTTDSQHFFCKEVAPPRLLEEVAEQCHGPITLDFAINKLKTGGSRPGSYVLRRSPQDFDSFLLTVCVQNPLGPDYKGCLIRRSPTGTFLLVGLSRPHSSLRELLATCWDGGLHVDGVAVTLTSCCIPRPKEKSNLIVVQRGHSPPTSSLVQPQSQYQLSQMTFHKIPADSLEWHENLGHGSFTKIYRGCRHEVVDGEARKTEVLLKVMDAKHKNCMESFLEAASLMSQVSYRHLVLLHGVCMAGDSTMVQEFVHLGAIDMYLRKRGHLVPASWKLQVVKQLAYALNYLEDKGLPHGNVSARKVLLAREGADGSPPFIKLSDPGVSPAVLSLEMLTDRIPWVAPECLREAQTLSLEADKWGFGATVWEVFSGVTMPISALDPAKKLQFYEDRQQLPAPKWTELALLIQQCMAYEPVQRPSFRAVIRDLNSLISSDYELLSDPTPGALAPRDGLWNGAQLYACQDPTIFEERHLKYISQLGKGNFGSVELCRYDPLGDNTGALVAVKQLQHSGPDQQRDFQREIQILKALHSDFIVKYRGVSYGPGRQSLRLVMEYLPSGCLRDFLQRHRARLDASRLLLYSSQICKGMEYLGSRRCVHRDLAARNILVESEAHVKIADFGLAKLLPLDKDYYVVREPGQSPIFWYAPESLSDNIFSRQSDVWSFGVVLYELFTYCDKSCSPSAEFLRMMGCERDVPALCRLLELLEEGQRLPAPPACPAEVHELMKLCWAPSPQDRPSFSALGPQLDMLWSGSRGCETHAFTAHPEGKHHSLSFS
Method in brief: as §1

T5 sequence (P08069 959-1367 limits assumed): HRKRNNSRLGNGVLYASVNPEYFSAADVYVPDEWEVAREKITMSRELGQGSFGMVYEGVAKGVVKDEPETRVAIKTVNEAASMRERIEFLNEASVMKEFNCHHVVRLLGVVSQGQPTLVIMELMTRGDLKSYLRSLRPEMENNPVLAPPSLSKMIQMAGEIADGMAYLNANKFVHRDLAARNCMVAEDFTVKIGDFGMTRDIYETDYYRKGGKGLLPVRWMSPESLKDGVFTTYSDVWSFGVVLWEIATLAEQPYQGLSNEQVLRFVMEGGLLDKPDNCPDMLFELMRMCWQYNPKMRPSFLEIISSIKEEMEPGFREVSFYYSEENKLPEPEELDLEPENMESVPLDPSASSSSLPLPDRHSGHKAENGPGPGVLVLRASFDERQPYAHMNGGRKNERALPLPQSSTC
T4 sequence (P53779 whole entry): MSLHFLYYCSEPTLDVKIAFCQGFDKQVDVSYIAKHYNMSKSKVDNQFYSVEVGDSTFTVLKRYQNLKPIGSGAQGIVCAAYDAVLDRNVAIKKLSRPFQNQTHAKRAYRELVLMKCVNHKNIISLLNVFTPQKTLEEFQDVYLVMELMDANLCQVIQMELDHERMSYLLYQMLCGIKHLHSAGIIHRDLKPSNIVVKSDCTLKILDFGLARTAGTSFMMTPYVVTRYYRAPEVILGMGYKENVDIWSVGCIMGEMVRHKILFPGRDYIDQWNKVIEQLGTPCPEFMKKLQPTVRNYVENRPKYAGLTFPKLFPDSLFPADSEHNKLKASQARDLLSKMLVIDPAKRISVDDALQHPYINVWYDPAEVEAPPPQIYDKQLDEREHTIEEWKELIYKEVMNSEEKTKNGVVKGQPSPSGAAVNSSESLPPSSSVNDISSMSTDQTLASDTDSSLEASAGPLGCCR
CDK5/p35(h), sequence (Q00535 whole entry): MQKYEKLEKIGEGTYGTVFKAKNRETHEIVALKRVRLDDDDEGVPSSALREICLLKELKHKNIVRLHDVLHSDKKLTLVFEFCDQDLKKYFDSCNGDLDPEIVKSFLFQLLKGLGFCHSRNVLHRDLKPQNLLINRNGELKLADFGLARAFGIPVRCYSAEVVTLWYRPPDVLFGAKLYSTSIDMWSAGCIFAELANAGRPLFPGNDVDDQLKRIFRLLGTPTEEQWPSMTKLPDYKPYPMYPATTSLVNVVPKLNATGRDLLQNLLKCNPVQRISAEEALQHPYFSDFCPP
CDK5/p35(h), sequence (Q15078 whole entry partner): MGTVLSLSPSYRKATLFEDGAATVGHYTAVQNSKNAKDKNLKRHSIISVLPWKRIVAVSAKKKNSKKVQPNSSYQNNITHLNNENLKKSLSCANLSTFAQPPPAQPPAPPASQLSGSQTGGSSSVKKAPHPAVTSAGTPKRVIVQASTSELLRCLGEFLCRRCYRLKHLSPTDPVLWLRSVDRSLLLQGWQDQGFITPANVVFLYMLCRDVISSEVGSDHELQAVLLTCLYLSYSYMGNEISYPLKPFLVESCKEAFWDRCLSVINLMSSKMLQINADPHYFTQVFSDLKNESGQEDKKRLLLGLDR
T6 sequence (Q13177 whole entry): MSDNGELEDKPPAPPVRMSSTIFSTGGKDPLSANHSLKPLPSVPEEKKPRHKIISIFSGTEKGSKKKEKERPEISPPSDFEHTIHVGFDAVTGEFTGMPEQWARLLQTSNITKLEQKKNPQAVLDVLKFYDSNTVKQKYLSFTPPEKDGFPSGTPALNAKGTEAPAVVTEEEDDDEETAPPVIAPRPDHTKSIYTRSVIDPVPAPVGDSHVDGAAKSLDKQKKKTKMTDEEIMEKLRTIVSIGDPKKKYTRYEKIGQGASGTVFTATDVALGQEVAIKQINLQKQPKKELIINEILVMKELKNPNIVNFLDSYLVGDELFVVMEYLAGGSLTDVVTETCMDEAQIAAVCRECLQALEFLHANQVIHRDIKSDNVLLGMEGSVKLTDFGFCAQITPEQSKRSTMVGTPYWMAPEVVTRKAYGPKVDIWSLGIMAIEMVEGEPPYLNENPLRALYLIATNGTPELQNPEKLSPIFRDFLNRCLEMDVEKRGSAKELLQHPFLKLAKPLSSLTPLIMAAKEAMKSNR

FAKLAARLYRKALARQLGVAA [MMI-0300]
% activity [1]: 96% | % activity [2]: 155% | % activity [3]: 75% | % activity [4]: 72% | % activity [5]: 79% | % activity [6]: 89% | % activity [7]: 80% | % activity [8]: 65%

HRRIKAWLKKIKALARQLGVAA (Mammal) [MMI-0500]
% activity [9]: 95% | % activity [1]: 95% | % activity [2]: 127% | % activity [3]: 1% | % activity [5]: 59% | % activity [6]: 171% | % activity [7]: 45% | % activity [8]: 44%

KAFAKLAARLYRKALARQLGVAA [MMI-0400]
% activity [9]: 122% | % activity [1]: 85% | % activity [2]: 195% | % activity [3]: 33% | % activity [4]: 91% | % activity [5]: 76% | % activity [6]: 70% | % activity [7]: 77% | % activity [8]: 59%

YARAAARQARAKALARQLGVAA [MMI-0100]
% activity [9]: 150% | % activity [3]: 79% | % activity [4]: 126% | % activity [7]: 126% | % activity [8]: 71%

YARAAARQARAKALNRQLGVA (Mammal) [MMI-0200]
% activity [1]: 90% | % activity [2]: 142% | % activity [3]: 58% | % activity [4]: 88% | % activity [5]: 92% | % activity [6]: 90% | % activity [7]: 94% | % activity [8]: 69%
